Data on one molecule can be found in article PMC3184076 (PLoS ONE, 2011).

One experiment addresses T1, Centromere B autoantigen (Homo sapiens (assumed), UniProt P07199).
T1 construct: also called centromere B autoantigens
Kind of experiment: AtheNA Multi-Lyte ANA II Test Kit (autoantigen immunoassay); kit of Zeus Scientific, per the manufacturer's instructions.

In another experiment the target is T2, MPER656 peptide (HIV-1, strain  (residues …)).
T2 construct: also called wild type MPER656 peptide
T2 chain: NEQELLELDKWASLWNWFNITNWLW
Kind of experiment: SPR. The settings on record: both partners purified.

Another experiment has as its target MPER26 peptide (HIV-1, strain  (residues …, biotin on the N-terminus)). The experiment is described as follows: SPR. The settings on record: both partners purified.
The target in experiment [1] is T3, MPR.03 biotinylated peptide (HIV-1, synthetic MPER sequence, strain …).
T3 construct: also called MPR.03 peptide; MPER peptide; source: synthetic peptide, bought: CPC Scientific Inc
The experiment is described as follows: SPR. The settings on record: both partners purified.

A further experiment has as its target T4, JR-FL gp140 (HIV-1 subtype B, JR-FL, UniProt Q75760, strain).
T4 construct: also called JR-FL gp140 envelope protein; source: generated as described [41]
Kind of experiment: ELISA.

T1 sequence (P07199 whole entry): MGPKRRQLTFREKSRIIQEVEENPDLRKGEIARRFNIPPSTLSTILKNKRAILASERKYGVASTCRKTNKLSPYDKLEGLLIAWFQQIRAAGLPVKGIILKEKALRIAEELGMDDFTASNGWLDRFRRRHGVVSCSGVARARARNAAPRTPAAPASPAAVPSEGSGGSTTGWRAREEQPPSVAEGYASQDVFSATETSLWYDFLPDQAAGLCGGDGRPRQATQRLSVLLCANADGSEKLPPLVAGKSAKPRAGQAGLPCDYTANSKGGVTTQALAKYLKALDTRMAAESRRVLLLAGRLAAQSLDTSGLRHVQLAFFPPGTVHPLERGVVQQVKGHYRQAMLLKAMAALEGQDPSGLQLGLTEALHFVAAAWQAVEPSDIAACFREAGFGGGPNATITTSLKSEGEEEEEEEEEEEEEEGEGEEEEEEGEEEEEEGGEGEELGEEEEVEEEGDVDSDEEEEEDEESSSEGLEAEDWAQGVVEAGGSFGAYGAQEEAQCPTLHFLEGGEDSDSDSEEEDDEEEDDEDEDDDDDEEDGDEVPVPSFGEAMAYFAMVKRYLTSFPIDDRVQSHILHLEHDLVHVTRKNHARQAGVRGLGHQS

B1: CAP206-CH12 recombinant human monoclonal antibody (antibody, V domains shown)
VH: QVQLVQSGAEVKKPGSSVKLSCKASGGTFGSYSVTWVRQAPGQTFEWVGRIVPWVGVPNYAPKFQGRVTITADKSSTVYMELTSLRFEDTAVYYCATAYEASGLSYYYYMDDWGKGTTVTVSS
VL: EIVLTQSPGTLSLSPGERATLSCRASQSVTSSYLAWFRHKPGQAPRLLIYGASYRGTGIPDRISGSGSGTDFTLTISRLEPEDFAVYYCQHYGGSPGMYTFGQGTRLEIK
notes: also called CAP206-CH12 mAb; CAP-206-CH12 mAb
As a reminder, the Kd is the constant that tells how readily two partners part at equilibrium. B1: the binding result is given as “binds” in the experiment with Centromere B autoantigen and “no binding” in the experiment with JR-FL gp140. Further, the results for the Kd (in the experiment with MPER656 peptide; in the experiment with MPER26 peptide; in experiment [1]) were 5.15 nM, 4.95 nM and 7.3 nM, respectively.
